Measured values taken from US20210130436A1 (published 2021).
Substitutions are numbered along the chain they refer to. In names and notes the source's numbering stands. Blank lines part the entries; values can stand above or below the binder they belong to.

Experiments:
[1] = molecular target: T1, human PD-L1 (CD274), full-length, expressed on the surface of CHO cells (human, UniProt Q9NZQ7 19-290); assay: flow cytometry, CHO cells stably expressing human PD-L1, 33.3 nM Fc fusion, PE anti-human Fc
T1 construct: also called huPD-L1; B7-H1
T1 sequence (Q9NZQ7 19-290): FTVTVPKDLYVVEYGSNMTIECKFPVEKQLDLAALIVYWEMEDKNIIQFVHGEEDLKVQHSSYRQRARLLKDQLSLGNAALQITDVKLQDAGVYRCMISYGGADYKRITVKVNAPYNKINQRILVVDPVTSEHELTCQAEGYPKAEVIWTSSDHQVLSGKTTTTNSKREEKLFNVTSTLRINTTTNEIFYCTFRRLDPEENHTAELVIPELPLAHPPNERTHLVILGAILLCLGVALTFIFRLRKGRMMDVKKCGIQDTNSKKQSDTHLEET

[2] = molecular target: T1, human PD-L1 (CD274), full-length, …; assay: flow cytometry; MFI on PD-L1 CHO cells over MFI on Jurkat cells (CD28)
[3] = molecular target: T2, human CTLA-4 (CTLA4), full-length, expressed on the surface of CHO cells (human, UniProt P16410 36-223); assay: flow cytometry on CTLA-4 CHO cells; MFI against WT CD80 ECD-Fc (R&D)
T2 construct: also called huCTLA4
T2 sequence (P16410 36-223): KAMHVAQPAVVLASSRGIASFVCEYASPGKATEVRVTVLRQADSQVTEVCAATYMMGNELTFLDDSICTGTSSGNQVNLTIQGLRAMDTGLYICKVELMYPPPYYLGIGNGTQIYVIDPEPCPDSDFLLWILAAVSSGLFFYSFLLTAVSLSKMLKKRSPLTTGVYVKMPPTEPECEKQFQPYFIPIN

[4] = molecular target: T3, human CD28, endogenously expressed on Jurkat/IL2 reporter cells (human, UniProt P10747 19-220); assay: flow cytometry on Jurkat cells (CD28); MFI against WT CD80 ECD-Fc (R&D)
T3 construct: This is the endogenous CD28 of Jurkat cells

[5] = molecular target: T2, human CTLA-4 (CTLA4), full-length, …; assay: flow cytometry, CHO cells stably expressing human CTLA-4, 33.3 nM Fc fusion, PE anti-human Fc
[6] = molecular target: T3, human CD28, endogenously expressed on …; assay: flow cytometry, Jurkat/IL2 reporter cells (endogenous CD28), 33.3 nM Fc fusion, PE anti-human Fc
[7] = molecular target: T1, human PD-L1 (CD274), full-length, …; assay: flow cytometry on PD-L1 CHO cells; MFI against WT CD80 ECD-Fc (R&D)
[8] = molecular target: T4, CD28, endogenously expressed on Jurkat/IL2 reporter cells (human, UniProt P10747 19-220); assay: flow cytometry, Jurkat/IL2 reporter cells (endogenous CD28)
T4 construct: whole, on cells

[9] = molecular target: T5, human PD-L1 (huPD-L1), full-length, stably expressed on CHO cells (human, UniProt Q9NZQ7 19-290); assay: flow cytometry, CHO cells expressing huPD-L1
T5 construct: whole, on cells
T5 sequence (Q9NZQ7 19-290): as the sequence (Q9NZQ7 19-290) above

[10] = molecular target: T6, human PD-L1, expressed on CHO cells (human, UniProt Q9NZQ7 19-290); assay: flow cytometry on CHO cells stably expressing human PD-L1; PE anti-human Fc
T6 construct: Full-length surface expression construct transduced by lentivirus into CHO cells; also called huPD-L1; CD274
T6 sequence (Q9NZQ7 19-290): as above

MFI at 33.3 nM [1]: 126000 MFI
Ratio of PDL1:CD28 [2]: 476 ratio
Fold change to WT CD80 [3]: 0.02 fold
Fold change to WT [4]: 0.03 fold
MFI at 33.3 nM [5]: 3530 MFI
MFI at 33.3 nM [6]: 264 MFI
Fold change to WT [7]: 15.8 fold
B1: variant CD80 IgV-Fc Q33L/E35D/M47L/V68M/L85Q/E88D (Fc fusion, not shown: a dimerising Fc or GST)
chain: VIHVTKEVKEVATLSCGHNVSVEELAQTRIYWLKDKKMVLTMMSGDLNIWPEYKNRTIFDITNNLSIMILALRPSDEGTYECVVQKYDKDAFKREHLAEVTLSVKAD

MFI at 33.3 nM [1]: 45200 MFI
Ratio of PDL1:CD28 [2]: 162 ratio
Fold change to WT CD80 [3]: 0.01 fold
Fold change to WT [4]: 0.04 fold
MFI at 33.3 nM [5]: 1180 MFI
MFI at 33.3 nM [6]: 279 MFI
Fold change to WT [7]: 5.69 fold
B2: variant CD80 IgV-Fc Q33L/E35D/N48K/L85Q/L97Q (Fc fusion, not shown: a dimerising Fc or GST)
chain: B1 chain with L47M, N48K, M68V, D88E, L97Q

MFI at 33.3 nM [1]: 78000 MFI
Ratio of PDL1:CD28 [2]: 275 ratio
Fold change to WT CD80 [3]: 0.08 fold
Fold change to WT [4]: 0.04 fold
MFI at 33.3 nM [5]: 14000 MFI
MFI at 33.3 nM [6]: 284 MFI
Fold change to WT [7]: 9.82 fold
B3: variant CD80 IgV-Fc Q33L/E35D/M43V/M47I/A71G (Fc fusion, not shown: a dimerising Fc or GST)
chain: B1 chain with M43V, L47I, M68V, A71G, Q85L, D88E

MFI at 33.3 nM [1]: 76400 MFI
Ratio of PDL1:CD28 [2]: 285 ratio
Fold change to WT CD80 [3]: 0.02 fold
Fold change to WT [4]: 0.04 fold
MFI at 33.3 nM [5]: 3840 MFI
MFI at 33.3 nM [6]: 268 MFI
Fold change to WT [7]: 9.61 fold
B4: variant CD80 IgV-Fc H18Y/Y31H/E35D/M47V/A71G/L85Q (Fc fusion, not shown: a dimerising Fc or GST)
chain: B1 chain with H18Y, Y31H, L33Q, L47V, M68V, A71G, D88E

MFI at 33.3 nM [8]: 403 MFI
MFI at 33.3 nM [9]: 8640 MFI
B5: variant CD80 IgV-Fc E35D/D46E/M47L/V68M/T79M/L85M (Fc fusion, not shown: small tags and cut ends; a dimerising Fc or GST)
chain: B1 chain with L33Q, D46E, T79M, Q85M, D88E

MFI at 33.3 nM [1]: 28000 MFI
Ratio of PDL1:CD28 [2]: 77 ratio
Fold change to WT CD80 [3]: 0.01 fold
Fold change to WT [4]: 0.05 fold
MFI at 33.3 nM [5]: 2110 MFI
MFI at 33.3 nM [6]: 366 MFI
Fold change to WT [7]: 3.53 fold
B6: variant CD80 IgV-Fc Q33L/E35D/M47L/A71G/F92S (Fc fusion, not shown: a dimerising Fc or GST)
chain: B1 chain with M68V, A71G, Q85L, D88E, F92S

MFI at 33.3 nM [1]: 29000 MFI
Ratio of PDL1:CD28 [2]: 107 ratio
Fold change to WT CD80 [3]: 0.01 fold
Fold change to WT [4]: 0.04 fold
MFI at 33.3 nM [5]: 1080 MFI
MFI at 33.3 nM [6]: 272 MFI
Fold change to WT [7]: 3.65 fold
B7: variant CD80 IgV-Fc Q33L/E35D/M43I/L85Q/R94W (Fc fusion, not shown: a dimerising Fc or GST)
chain: B1 chain with M43I, L47M, M68V, D88E, R94W

MFI at 33.3 nM [1]: 25400 MFI
Ratio of PDL1:CD28 [2]: 79 ratio
Fold change to WT CD80 [3]: 0.43 fold
Fold change to WT [4]: 0.04 fold
MFI at 33.3 nM [5]: 77400 MFI
MFI at 33.3 nM [6]: 323 MFI
Fold change to WT [7]: 3.2 fold
B8: variant CD80 IgV-Fc V22A/R29H/E35D/D46E/M47I (Fc fusion, not shown: a dimerising Fc or GST)
chain: B1 chain with V22A, R29H, L33Q, D46E, L47I, M68V, Q85L, D88E

MFI at 33.3 nM [10]: 19400 MFI
B9: variant CD80 IgV-Fc E35D/M38T/D46E/M47V/N48S (Fc fusion, not shown: small tags and cut ends; a dimerising Fc or GST)
chain: B1 chain with L33Q, M38T, D46E, L47V, N48S, M68V, Q85L, D88E
notes: Fc fusion of the variant IgV
